# Reference: the supplement of paper PMC9170038
# System: K4 kissing-loop RNA reporter
# Experiment: apparent KD of K4 kissing-loop reporter; higher = weaker reporter binding
# Settings: Eterna round: R107
# Protocol: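 RNA-MaP round R107: designed RNA switches with theophylline, tryptophan, arginine or FMN aptamers are transcribed on-chip within common flanks. They are titrated with a labelled K4 kissing-loop RNA reporter in RNA-MaP buffer (100 mM Tris pH 7.5, 80 mM KCl, 4 mM MgCl2), without ligand or with the indicated ligand. Median apparent KD per design.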
# [1] = input ligand: theophylline 20 uM
# [2] = input ligand: tryptophan 2.4 mM
# 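Further: bound reporter read as fluorescence of individual clusters on recovered sequencing chips by microscopy, with normalized cluster intensities fitted with a binding model.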
Sequence,apparent KD of K4 kissing-loop reporter (input ligand: FMN 200 uM) [nM],apparent KD of K4 kissing-loop reporter (input ligand: arginine 13.2 mM) [nM],apparent KD of K4 kissing-loop reporter (input ligand: none) [nM],apparent KD of K4 kissing-loop reporter [1] [nM],apparent KD of K4 kissing-loop reporter [2] [nM]
AUUUAGACGAGUGAUGUUCGUGUUAUUACAGAGGAUAUGCGUAAUUGCAGAAGGCUGUAUUUAUAUAUGUUAUGUAGUUUUAAAA [whbob_Ex_FMNA__2th184],87.3,108,84.8,94.8,74.1
AUUUGUUUAUGCGAUACCAGACUAAGCAGUGAUGUUGCUUUUAUUUUUGAAUUUUAAAUAGUCCCUUGGCAGCGCUAUGUCUGUA [#06 K4 Theophylline B Same State],127,200,183,217,119
AUUUGUUUAUGUGAUACCAGACUUUGCAGUGAUGUUGCAUUUAUUUUAGAAUAUAAUUUAGUCCCUUGGCAGCACUAUGUAUUUA [JR_SSTheophyB_Sub008],67.1,110,73.8,109,63.4
AUUUUAUUAACUGAUACCAGACUUAAUGAAUUGUAAAUUACUAGUGAUGUUAGUGAUUCUGUCCCUUGGCAGCAGUAUUUAUUAA [JR_ExcTheophyB_Sub012],129,146,139,141,118
AUUUUGGUUUAGAGUGAUGUUCCUUGUAUUCGAGGACCGGUACGGCCGCCACUCGAAUAGAAAAGAAAAGAAAUGUUUGAUUUUU [BDazzled - #7 SS Tryptophan A],406,211,556,351,361
AUUUUUUUGUCAGGAUAUUAGUAUGCGUUUGGUUUGUUAGUGAUGUUGAUAUUUUGUUUAUGUAUUUAAGAAGGGAUUUAGCGGU [yyitemullin],497,348,511,497,359
AUUUUUUUGUCAGGAUAUUAGUGUGCGUUUGGUUUGUUAGUGAUGUUGAUAUUUUGUUUAUGUAUUUAAGAAGGGAUUUAGCGGU [aaeatemullin],534,436,501,504,349
AUUUUUUUGUCAGGAUAUUAGUGUUGGUUUGGUUUGUUAGUGAUGUUGAUAUUUGUUUUAUGUAUUUAAGAAGGGAUUUAGCGGU [wxooemullin],420,379,364,458,293
CAAACUCUGACGGCCGCCACUAAUCGUGUAACAGUGAUGUUGUUACAUCAAAGAUGGGUUGCGUGUAGGACCGGGUCGACGCAAA [theeternabot_exclusion_KL_Trp_B_48],131,120,120,111,124
CAAAUAUGCGGUAGGUUCAAGCGCUGGGAAGGAGCGCAGAUGACUGCAGGUAGGUCGCCCAGUGAUGUUGGGCUUUCCACCUAUU [Edbeaan],123,124,132,146,121
CAAUGAGUAUAAGAUGAUAUCAUCACAGAAGGAGCGAGUGAUAACUCAGGUAGGUCGCUGAAUUUAUCGAGUGAUGUUCGAUAGA [whbob_SS_Arginine_A_sa118],207,158,199,175,170
CACCAUGAAUUCUCUAGGAGUGAUGUUUUUCGAGGACCGGUACGGCCGCCACUCGGACCAGGAACGUGGGAGCGGCGAAAAGACU [ttmullin],656,438,688,494,373
CACCGCAACUGAAGGAGCGCGCCAGUGAUGUUGGACGGCUUUGUCAAGGAAACUGCACCGGUGCAGGUAGGUCGCAGUUCGCGGC [Ededisa],319,256,366,278,259
CACCGGACGAAAGAUACCAGUUACUAUAUUAGGGUGCCUUGGCUAGUGAUGUUAGAGAGUAACCCUUGGCAGCUUUGGUACUUAU [theeternabot_exclusion_KL_Theo_B_21],380,367,390,319,335
CACGAUGAAUUCUCUAGGAGUGAUGUUUUUCGAGGACCGGUACGGCCGCCACUCGGACGACGAGCGUGGUAGCGGCGUGAAGACU [zamullin],365,276,625,459,452
CACGGUUAUACGGCCGCCACUGAUUGCGUUGCAGUGAUGUUGCACGCGUCCGACUACACCUCAUUCAGGACCGGGUAGACAUGCA [theeternabot_exclusion_KL_Trp_B_11],238,163,230,208,246
